Experimental data: the RNAGym collection of RNA variant scans (doi:10.7554/elife.90254)

B1: OR4K15 (parent)
chain: GUUAACGGUCAUAGGCCAUGGAAACUAGGAGCACCAUUUCGCUGCCAGUGAAGAAAUGAACAAAGAAAAUCUGGGCCAGGCAGGCAUCAAAAGAAAUAGUCUUGCGCUCAACCAGAAAGUCUGUAAUCAUUUUAAGGGUA

Variants of: B1
Test: self-cleavage, relative activity (ratio to wild type); higher = more cleavage; in vitro, sequencing; the parent is a self-cleaving ribozyme

Variant | self-cleavage
GUUAACGGUCAUAGGCCAUGGAAACUAGGAGCACCAUUUCGCUGCCAGUGAAGAGAUGAUCAAAGAAAAUCUGGGCCAGGCAGGCAUCAAAAGAAAUAGUCUUGCGCUCAACCAGAAAGUCUGUAAUCAUUUUAAGGGUA [A55G A60U] | 1.62
GUUAACGGUCAUAGGCCAUGGAAACUAGGAGCACCAUUUCGCUGCCAGUGAAGAGAUGAGCAAAGAAAAUCUGGGCCAGGCAGGCAUCAAAAGAAAUAGUCUUGCGCUCAACCAGAAAGUCUGUAAUCAUUUUAAGGGUA [A55G A60G] | 1
GUUAACGGUCAUAGGCCAUGGAAACUAGGAGCACCAUUUCGCUGCCAGUGAAGAGAUGAACAAAGAAAAUCUGGGCCAGGCAGGCAUCAAAAGAAAUAGUCUUGCGCUCAACCUGAAAGUCUGUAAUCAUUUUAAGGGUA [A55G A114U] | 0.02
GUUAACGGUCAUAGGCCAUGGAAACUAGGAGCACCAUUUCGCUGCCAGUGAAGAGAUGAACAAAGAAAAUCUGGGCCAGGCAGGCAUCAAAAGAAAUAGUCUUGCGCUCAACCCGAAAGUCUGUAAUCAUUUUAAGGGUA [A55G A114C] | 0.05
GUUAACGGUCAUAGGCCAUGGAAACUAGGAGCACCAUUUCGCUGCCAGUGAAGAGAUGAACAAAGAAAAUCUGGGCCAGGCAGGCAUCAAAAGAAAUAGUCUUGCGCUCGACCAGAAAGUCUGUAAUCAUUUUAAGGGUA [A55G A110G] | 0.12
GUUAACGGUCAUAGGCCAUGGAAACUAGGAGCACCAUUUCGCUGCCAGUGAAGAGAUGAACAAAGAAAAUCUGGGCCAGGCAGGCAUCAAAAGAAAUAGUCUUGCGCUCAACCAGGAAGUCUGUAAUCAUUUUAAGGGUA [A55G A116G] | 0.63
GUUAACGGUCAUAGGCCAUGGAAACUAGGAGCACCAUUUCGCUGCCAGUGAAGAGAUGAACAAAGUAAAUCUGGGCCAGGCAGGCAUCAAAAGAAAUAGUCUUGCGCUCAACCAGAAAGUCUGUAAUCAUUUUAAGGGUA [A55G A66U] | 0.64
GUUAACGGUCAUAGGCCAUGGAAACUAGGAGCACCAUUUCGCUGCCAGUGAAGACAUGAACAAAGAAAAUCUGGGCCAGGCAGGCAUCAAAAGAAAUAGUCCUGCGCUCAACCAGAAAGUCUGUAAUCAUUUUAAGGGUA [A55C U102C] | 1.41
GUUAACGGUCAUAGGCCAUGGAAACUAGGAGCACCAUUUCGCUGCCAGUGAAGAGAUGAACAAAGAGAAUCUGGGCCAGGCAGGCAUCAAAAGAAAUAGUCUUGCGCUCAACCAGAAAGUCUGUAAUCAUUUUAAGGGUA [A55G A67G] | 1.21
GUUAACGGUCAUAGGCCAUGGAAACUAGGAGCACCAUUUCGCUGCCAGUGAAGAGAUGAACAAAGAUAAUCUGGGCCAGGCAGGCAUCAAAAGAAAUAGUCUUGCGCUCAACCAGAAAGUCUGUAAUCAUUUUAAGGGUA [A55G A67U] | 1.53
GUUAACGGUCAUAGGCCAUGGAAACUAGGAGCACCAUUUCGCUGCCAGUGAAGAGAUGAACAAAGAAAAUCUGGGCCAGGCAGGCAUCAAAAGAAAUAGUCUUGCGCUCAACCAGAAAGUCUGUAAUCAUUUUAUGGGUA [A55G A135U] | 0.94
GUUAACGGUCAUAGGCCAUGGAAACUAGGAGCACCAUUUCGCUGCCAGUGAAGACAUGAACAAAGAAAAUCUGGGCCAGGCAGGCACCAAAAGAAAUAGUCUUGCGCUCAACCAGAAAGUCUGUAAUCAUUUUAAGGGUA [A55C U87C] | 0.47
GUUAACGGUCAUAGGCCAUGGAAACUAGGAGCACCAUUUCGCUGCCAGUGAAGAGAUGAACAAAGAAAAUCUGGGCCAGGCAGGCAUCAAAAGGAAUAGUCUUGCGCUCAACCAGAAAGUCUGUAAUCAUUUUAAGGGUA [A55G A94G] | 1.39
GUUAACGGUCAUAGGCCAUGGAAACUAGGAGCACCAUUUCGCUGCCAGUGAAGAGAUGAACAAAGAAAAUCUGGGCCAGGCAGGCAUCAAAGGAAAUAGUCUUGCGCUCAACCAGAAAGUCUGUAAUCAUUUUAAGGGUA [A55G A92G] | 0.67
GUUAACGGUCAUAGGCCAUGGAAACUAGGAGCACCAUUUCGCUGCCAGUGAAGAGAUGAACAAAGAAAAUCUGGGCCAGGCAGGCAUCAAAAGAAAUAGUCUUGCGCUCAACCAGAAAGUCUGUAAUCAUUUUAAGGGUU [A55G A140U] | 0.81
GUUAACGGUCAUAGGCCAUGGAAACUAGGAGCACCAUUUCGCUGCCAGUGAAGAGAUGAACAAAGAAAAUCUGGGCCAGGCAGGCUUCAAAAGAAAUAGUCUUGCGCUCAACCAGAAAGUCUGUAAUCAUUUUAAGGGUA [A55G A86U] | 1.26
GUUAACGGUCAUAGGCCAUGGAAACUAGGAGCACCAUUUCGCUGCCAGUGAAGAGAUGAACAAAGAAAAUCUGGGCCAGGCAGGCCUCAAAAGAAAUAGUCUUGCGCUCAACCAGAAAGUCUGUAAUCAUUUUAAGGGUA [A55G A86C] | 1.66
GUUAACGGUCAUAGGCCAUGGAAACUAGGAGCACCAUUUCGCUGCCAGUGAAGAGAUGAACAAAGAAAAUCUGGGCCAGGCAGGCAUCAAAAGAAAUUGUCUUGCGCUCAACCAGAAAGUCUGUAAUCAUUUUAAGGGUA [A55G A98U] | 1.21
GUUAACGGUCAUAGGCCAUGGAAACUAGGAGCACCAUUUCGCUGCCAGUGAAGAGAUGAACAAAGAAAAUCUGGGCCAGGCAGGCAUCAAAAGAAAUAGUCUUGCGCUCAACCAGAAAGUCUGUACUCAUUUUAAGGGUA [A55G A126C] | 0.18
GUUAACGGUCAUAGGCCAUGGAAACUAGGAGCACCAUUUCGCUGCCAGUGAAGAGGUGAACAAAGAAAAUCUGGGCCAGGCAGGCAUCAAAAGAAAUAGUCUUGCGCUCAACCAGAAAGUCUGUAAUCAUUUUAAGGGUA [A55G A56G] | 1.31
GUUAACGGUCAUAGGCCAUGGAAACUAGGAGCACCAUUUCGCUGCCAGUGAAGAGAUGAACGAAGAAAAUCUGGGCCAGGCAGGCAUCAAAAGAAAUAGUCUUGCGCUCAACCAGAAAGUCUGUAAUCAUUUUAAGGGUA [A55G A62G] | 0.75

Variant | self-cleavage
GUUAACGGUCAUAGGCCAUGGAAACUAGGAGCACCAUUUCGCUGCCAGUGAAGAGAUGAACAAAGAAUAUCUGGGCCAGGCAGGCAUCAAAAGAAAUAGUCUUGCGCUCAACCAGAAAGUCUGUAAUCAUUUUAAGGGUA [A55G A68U] | 1.2
GUUAACGGUCAUAGGCCAUGGAAACUAGGAGCACCAUUUCGCUGCCAGUGAAGAGAUGAACAAAGAACAUCUGGGCCAGGCAGGCAUCAAAAGAAAUAGUCUUGCGCUCAACCAGAAAGUCUGUAAUCAUUUUAAGGGUA [A55G A68C] | 2.11
GUUAACGGUCAUAGGCCAUGGAAACUAGGAGCACCAUUUCGCUGCCAGUGAAGAGAUGAACAAAGAAGAUCUGGGCCAGGCAGGCAUCAAAAGAAAUAGUCUUGCGCUCAACCAGAAAGUCUGUAAUCAUUUUAAGGGUA [A55G A68G] | 1.23
GUUAACGGUCAUAGGCCAUGGAAACUAGGAGCACCAUUUCGCUGCCAGUGAAGAGAUGAACAAAGAAAAUCUGGGCCGGGCAGGCAUCAAAAGAAAUAGUCUUGCGCUCAACCAGAAAGUCUGUAAUCAUUUUAAGGGUA [A55G A78G] | 0.23
GUUAACGGUCAUAGGCCAUGGAAACUAGGAGCACCAUUUCGCUGCCAGUGAAGAGAUGAACAAAGAAAAUCUGGGCCUGGCAGGCAUCAAAAGAAAUAGUCUUGCGCUCAACCAGAAAGUCUGUAAUCAUUUUAAGGGUA [A55G A78U] | 0.18
GUUAACGGUCAUAGGCCAUGGAAACUAGGAGCACCAUUUCGCUGCCAGUGAAGAGAUGAACAAAGAAAAUCUGGGCCAGGCAGGCAUCAAUAGAAAUAGUCUUGCGCUCAACCAGAAAGUCUGUAAUCAUUUUAAGGGUA [A55G A91U] | 2.07
GUUAACGGUCAUAGGCCAUGGAAACUAGGAGCACCAUUUCGCUGCCAGUGAAGAGAUGAACAUAGAAAAUCUGGGCCAGGCAGGCAUCAAAAGAAAUAGUCUUGCGCUCAACCAGAAAGUCUGUAAUCAUUUUAAGGGUA [A55G A63U] | 1.1
GUUAACGGUCAUAGGCCAUGGAAACUAGGAGCACCAUUUCGCUGCCAGUGAAGAGAUGAACAGAGAAAAUCUGGGCCAGGCAGGCAUCAAAAGAAAUAGUCUUGCGCUCAACCAGAAAGUCUGUAAUCAUUUUAAGGGUA [A55G A63G] | 1.43
GUUAACGGUCAUAGGCCAUGGAAACUAGGAGCACCAUUUCGCUGCCAGUGAAGACAUGAACAAAGAAAAUCCGGGCCAGGCAGGCAUCAAAAGAAAUAGUCUUGCGCUCAACCAGAAAGUCUGUAAUCAUUUUAAGGGUA [A55C U72C] | 0.24
GUUAACGGUCAUAGGCCAUGGAAACUAGGAGCACCAUUUCGCUGCCAGUGAAGAGAUGAACAAAGAAAAUCUGGGCCAGGCCGGCAUCAAAAGAAAUAGUCUUGCGCUCAACCAGAAAGUCUGUAAUCAUUUUAAGGGUA [A55G A82C] | 0.16
GUUAACGGUCAUAGGCCAUGGAAACUAGGAGCACCAUUUCGCUGCCAGUGAAGAGAUGAACAAAGAAAAUCUGGGCCAGGCAGGCAUCAAAAGAAAUAGUCUUGCGCUCAACCAGAAAGUCUGUAAUCCUUUUAAGGGUA [A55G A129C] | 0.72
GUUAACGGUCAUAGGCCAUGGAAACUAGGAGCACCAUUUCGCUGCCAGUGAAGAGAUGAACAAAGAAAAUCUGGGCCAGGCAGGCAUCAAAAGAAAUAGUCUUGCGCUCAACCAGAAAGUCUGUAAUCGUUUUAAGGGUA [A55G A129G] | 0.99
GUUAACGGUCAUAGGCCAUGGAAACUAGGAGCACCAUUUCGCUGCCAGUGAAGAGAUGGACAAAGAAAAUCUGGGCCAGGCAGGCAUCAAAAGAAAUAGUCUUGCGCUCAACCAGAAAGUCUGUAAUCAUUUUAAGGGUA [A55G A59G] | 1.17
GUUAACGGUCAUAGGCCAUGGAAACUAGGAGCACCAUUUCGCUGCCAGUGAAGAGAUGAACAAAGAAAAUCUGGGUCAGGCAGGCAUCAAAAGAAAUAGUCUUGCGCUCAACCAGAAAGUCUGUAAUCAUUUUAAGGGUA [A55G C76U] | 0.15
GUUAACGGUCAUAGGCCAUGGAAACUAGGAGCACCAUUUCGCUGCCAGUGAAGAGAUGAACAAAGAAAAUCUGGGCCAGGCAGGCAUUAAAAGAAAUAGUCUUGCGCUCAACCAGAAAGUCUGUAAUCAUUUUAAGGGUA [A55G C88U] | 1.02
GUUAACGGUCAUAGGCCAUGGAAACUAGGAGCACCAUUUCGCUGCCAGUGAAGACAUGAACAAAGAAAAUCUGGGCCAGGCAGGCAUCAAAAGAAAUAGUCUUGCGCUCAACCAGAAAGUCUGCAAUCAUUUUAAGGGUA [A55C U124C] | 0.95
GUUAACGGUCAUAGGCCAUGGAAACUAGGAGCACCAUUUCGCUGCCAGUGAAGAGAUGAACAAAGAAAAUCUGGGCCAGGCAGGCAUCAAAAGAAGUAGUCUUGCGCUCAACCAGAAAGUCUGUAAUCAUUUUAAGGGUA [A55G A96G] | 0.83
GUUAACGGUCAUAGGCCAUGGAAACUAGGAGCACCAUUUCGCUGCCAGUGAAGAGAUGAACAAAGAAAAUCUGGGCCAGGCAGGCAUCAAAAGAAAUAGUCUUGCGCUCAUCCAGAAAGUCUGUAAUCAUUUUAAGGGUA [A55G A111U] | 0.21
GUUAACGGUCAUAGGCCAUGGAAACUAGGAGCACCAUUUCGCUGCCAGUGAAGAGAUGAACAAAGAAAAUCUGGGCCAGGCAGGCAUCAAAAGAGAUAGUCUUGCGCUCAACCAGAAAGUCUGUAAUCAUUUUAAGGGUA [A55G A95G] | 1.92
GUUAACGGUCAUAGGCCAUGGAAACUAGGAGCACCAUUUCGCUGCCAGUGAAGAGAUGAACAAAGAAAAUCUGGGCCAGGCAGGCAUCAAAAGAAAUAGUCUUGCGCUCAACCAGAAGGUCUGUAAUCAUUUUAAGGGUA [A55G A118G] | 1.23
